Experimental data as given in article PMC6582535.

Molecular target: Cholecystokinin type B receptor (mouse (endogenous in DRG)) (UniProt P56481)
Sequence of UniProt P56481 (P56481 whole entry): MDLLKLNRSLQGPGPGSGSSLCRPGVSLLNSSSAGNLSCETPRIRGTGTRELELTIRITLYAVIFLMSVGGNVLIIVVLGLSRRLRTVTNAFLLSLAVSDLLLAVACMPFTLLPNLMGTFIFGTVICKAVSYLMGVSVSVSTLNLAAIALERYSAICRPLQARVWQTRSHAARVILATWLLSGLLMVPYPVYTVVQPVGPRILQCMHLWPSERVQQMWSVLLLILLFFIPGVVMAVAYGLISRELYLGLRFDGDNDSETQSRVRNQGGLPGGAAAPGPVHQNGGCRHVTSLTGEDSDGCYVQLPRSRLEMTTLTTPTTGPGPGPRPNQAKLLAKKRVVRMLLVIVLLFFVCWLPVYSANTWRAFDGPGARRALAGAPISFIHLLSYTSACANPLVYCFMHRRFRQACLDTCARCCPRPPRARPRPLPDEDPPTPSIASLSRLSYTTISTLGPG

percent decrease of A-type K+ current (IA) in small-sized mouse DRG neurons at 300 nM CCK-4: 32.2%
Substance: CCK-4 (peptide)
